Experimental data taken from article PMC7508794, “IRES-targeting small molecule inhibits enterovirus 71 replication via allosteric stabilization of a ternary complex”.

Legend:
[1] = biological target: A1-RRM1,2 (UP1) (UniProt P09651 1-196); experiment: ITC; no small molecule; ITC: 10 mM K2HPO4, 20 mM KCl, 0.5 mM EDTA, 4 mM BME, pH 6.5, 25 C; lysate pull-down: 5 mM HEPES pH 7.1, 40 mM KCl, 0.1 mM EDTA, 2 mM MgCl2, 2 mM DTT, 0.25 mg/ml heparin, 30 C; settings: protein: recombinant; tags: C-terminal His6; hairpin with 5-nt bulge and 7-nt apical loop
[2] = biological target: T1, AUF1-RRM1,2 (UniProt Q14103-4 70-239); experiment: as above; settings: protein: recombinant; tags: N-terminal His6, cleaved with TEV; hairpin with 5-nt bulge and 7-nt apical loop
[3] = biological target: T1, AUF1-RRM1,2; experiment: ITC; DMA-001, RNA:DMA 1:5; ITC: 10 mM K2HPO4, 20 mM KCl, 0.5 mM EDTA, 4 mM BME, pH 6.5, 25 C; lysate pull-down: 5 mM HEPES pH 7.1, 40 mM KCl, 0.1 mM EDTA, 2 mM MgCl2, 2 mM DTT, 0.25 mg/ml heparin, 30 C; settings: protein: recombinant; tags: N-terminal His6, cleaved with TEV; hairpin with 5-nt bulge and 7-nt apical loop
[4] = biological target: T1, AUF1-RRM1,2; experiment: ITC; DMA-135, RNA:DMA 1:5; ITC: 10 mM K2HPO4, 20 mM KCl, 0.5 mM EDTA, 4 mM BME, pH 6.5, 25 C; lysate pull-down: 5 mM HEPES pH 7.1, 40 mM KCl, 0.1 mM EDTA, 2 mM MgCl2, 2 mM DTT, 0.25 mg/ml heparin, 30 C; settings: protein: recombinant; tags: N-terminal His6, cleaved with TEV; hairpin with 5-nt bulge and 7-nt apical loop
[5] = biological target: T1, AUF1-RRM1,2; experiment: ITC; DMA-155, RNA:DMA 1:5; ITC: 10 mM K2HPO4, 20 mM KCl, 0.5 mM EDTA, 4 mM BME, pH 6.5, 25 C; lysate pull-down: 5 mM HEPES pH 7.1, 40 mM KCl, 0.1 mM EDTA, 2 mM MgCl2, 2 mM DTT, 0.25 mg/ml heparin, 30 C; settings: protein: recombinant; tags: N-terminal His6, cleaved with TEV; hairpin with 5-nt bulge and 7-nt apical loop
[6] = biological target: T1, AUF1-RRM1,2; experiment: ITC; DMA-135, RNA:DMA 1:1.6; ITC: 10 mM K2HPO4, 20 mM KCl, 0.5 mM EDTA, 4 mM BME, pH 6.5, 25 C; lysate pull-down: 5 mM HEPES pH 7.1, 40 mM KCl, 0.1 mM EDTA, 2 mM MgCl2, 2 mM DTT, 0.25 mg/ml heparin, 30 C; settings: protein: recombinant; tags: N-terminal His6, cleaved with TEV; hairpin with 5-nt bulge and 7-nt apical loop
[7] = biological target: T1, AUF1-RRM1,2; experiment: ITC; DMA-135, RNA:DMA 1:3.3; ITC: 10 mM K2HPO4, 20 mM KCl, 0.5 mM EDTA, 4 mM BME, pH 6.5, 25 C; lysate pull-down: 5 mM HEPES pH 7.1, 40 mM KCl, 0.1 mM EDTA, 2 mM MgCl2, 2 mM DTT, 0.25 mg/ml heparin, 30 C; settings: protein: recombinant; tags: N-terminal His6, cleaved with TEV; hairpin with 5-nt bulge and 7-nt apical loop

T1 sequence (Q14103 other isoform, or with tags, fused parts or gaps): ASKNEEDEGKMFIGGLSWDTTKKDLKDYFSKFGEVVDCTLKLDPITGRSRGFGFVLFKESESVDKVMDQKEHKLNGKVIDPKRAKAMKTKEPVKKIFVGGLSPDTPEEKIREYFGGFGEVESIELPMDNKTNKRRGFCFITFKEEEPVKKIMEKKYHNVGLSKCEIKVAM
A1-RRM1,2 (UP1), sequence (P09651 1-196): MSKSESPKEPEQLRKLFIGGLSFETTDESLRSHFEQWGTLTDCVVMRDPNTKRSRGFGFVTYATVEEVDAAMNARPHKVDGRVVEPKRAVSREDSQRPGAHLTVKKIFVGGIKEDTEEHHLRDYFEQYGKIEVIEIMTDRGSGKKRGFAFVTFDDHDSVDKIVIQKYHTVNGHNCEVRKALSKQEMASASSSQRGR

B1: EV71 SLII (SLII2231) (structured_RNA)
RNA: GGAUCAAUAGCAGGUGUGGCACACCAGUCAUACCUUGAUCC
[1]
  binding result: binds
[2]
  Kd: 336 ± 44 nM
[3]
  Kd: 306 ± 4 nM
[4]
  Kd: 134 ± 7 nM
[5]
  Kd: 390 ± 7 nM
[6]
  Kd: 240 ± 72 nM
[7]
  Kd: 140 ± 2 nM
